Reference: patent US20240084004A1

Columns and labels:
[1] = biological target: T1, canine PD-1 (canine Programmed Death Receptor 1) antigen (canine); assay: SPR (Biacore T200), canine PD-1 immobilized by amine coupling, antibody as analyte, 1:1 fit
T1 sequence: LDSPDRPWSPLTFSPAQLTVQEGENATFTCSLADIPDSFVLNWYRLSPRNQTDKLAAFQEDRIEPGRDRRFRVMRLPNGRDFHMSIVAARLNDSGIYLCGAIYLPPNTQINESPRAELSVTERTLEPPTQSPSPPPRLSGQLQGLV

[2] = biological target: T1, canine PD-1 (canine Programmed Death Receptor 1) antigen (canine); assay: SPR (Biacore T200), canine PD-1 immobilized by amine coupling, antibody as analyte, 1:1 fit; off-rate below detection limit

B1: Murine 2H9 (mouse anti-canine PD-1 monoclonal antibody) (antibody, V domains shown)
VH: EVQLQQSVAELVRPGASVKLSCTASGFNIKNTYMHWIKQRPEQGLEWIGRIAPANVDTKYAPKFQGKATITADTSSNTAYMQLSTLTSEDTAIYYCVLIYYDYDGDIDVWGTGTTVTVSS
VL: DIQMNQSPSSLSASLGDTITITCHASQNINVWLSWYQQRPGNIPKLLIYKASHLHTGVPSRFSGSGSGTGFTLTISSLQPEDIATYYCQQGQSWPLTFGAGTKLELK
[1]
  kon: 23000 M⁻¹ s⁻¹
[2]
  Kd: < 0.2 nM
  koff: < 5e-06 s⁻¹

B2: Murine 3B6 (mouse anti-canine PD-1 monoclonal antibody) (antibody, V domains shown)
VH: QIQLVQSGPELKKPGETVKISCKASGYTFTTYGMSWVKQAPGKGLKWMGWINIYSGIPTYADDFKGRFAFSLETSASTAYLQIDNLKNEDTATYFCARFDGPDYWGQGTTLTVSS
VL: DIVMTQSPSSLAVSVGRKVTMSCKSSQSLLNSVNQKNYLAWYQQKPGQSPKVLVYFASARVSGVPDRFIGSGSGTDFTLAISSVQAEDLTTYFCQQYFSTPLTFGAGTKLELK
[1]
  Kd: 2 nM
  koff: 3.4e-05 s⁻¹
  kon: 18000 M⁻¹ s⁻¹
